The chains are these.
B1: Integrin alpha-L (Homo sapiens), P20701 (parent)
chain: MKDSCITVMAMALLSGFFFFAPASSYNLDVRGARSFSPPRAGRHFGYRVLQVGNGVIVGAPGEGNSTGSLYQCQSGTGHCLPVTLRGSNYTSKYLGMTLATDPTDGSILACDPGLSRTCDQNTYLSGLCYLFRQNLQGPMLQGRPGFQECIKGNVDLVFLFDGSMSLQPDEFQKILDFMKDVMKKLSNTSYQFAAVQFSTSYKTEFDFSDYVKRKDPDALLKHVKHMLLLTNTFGAINYVATEVFREELGARPDATKVLIIITDGEATDSGNIDAAKDIIRYIIGIGKHFQTKESQETLHKFASKPASEFVKILDTFEKLKDLFTELQKKIYVIEGTSKQDLTSFNMELSSSGISADLSRGHAVVGAVGAKDWAGGFLDLKADLQDDTFIGNEPLTPEVRAGYLGYTVTWLPSRQKTSLLASGAPRYQHMGRVLLFQEPQGGGHWSQVQTIHGTQIGSYFGGELCGVDVDQDGETELLLIGAPLFYGEQRGGRVFIYQRRQLGFEEVSELQGDPGYPLGRFGEAITALTDINGDGLVDVAVGAPLEEQGAVYIFNGRHGGLSPQPSQRIEGTQVLSGIQWFGRSIHGVKDLEGDGLADVAVGAESQMIVLSSRPVVDMVTLMSFSPAEIPVHEVECSYSTSNKMKEGVNITICFQIKSLIPQFQGRLVANLTYTLQLDGHRTRRRGLFPGGRHELRRNIAVTTSMSCTDFSFHFPVCVQDLISPINVSLNFSLWEEEGTPRDQRAQGKDIPPILRPSLHSETWEIPFEKNCGEDKKCEANLRVSFSPARSRALRLTAFASLSVELSLSNLEEDAYWVQLDLHFPPGLSFRKVEMLKPHSQIPVSCEELPEESRLLSRALSCNVSSPIFKAGHSVALQMMFNTLVNSSWGDSVELHANVTCNNEDSDLLEDNSATTIIPILYPINILIQDQEDSTLYVSFTPKGPKIHQVKHMYQVRIQPSIHDHNIPTLEAVVGVPQPPSEGPITHQWSVQMEPPVPCHYEDLERLPDAAEPCLPGALFRCPVVFRQEILVQVIGTLELVGEIEASSMFSLCSSLSISFNSSKHFHLYGSNASLAQVVMKVDVVYEKQMLYLYVLSGIGGLLLLLLIFIVLYKVGFFKRNLKEKMEAGRGVPNGIPAEDSEQLASGQEAGDPGCLKPLHEKDSESGGGKD
partner: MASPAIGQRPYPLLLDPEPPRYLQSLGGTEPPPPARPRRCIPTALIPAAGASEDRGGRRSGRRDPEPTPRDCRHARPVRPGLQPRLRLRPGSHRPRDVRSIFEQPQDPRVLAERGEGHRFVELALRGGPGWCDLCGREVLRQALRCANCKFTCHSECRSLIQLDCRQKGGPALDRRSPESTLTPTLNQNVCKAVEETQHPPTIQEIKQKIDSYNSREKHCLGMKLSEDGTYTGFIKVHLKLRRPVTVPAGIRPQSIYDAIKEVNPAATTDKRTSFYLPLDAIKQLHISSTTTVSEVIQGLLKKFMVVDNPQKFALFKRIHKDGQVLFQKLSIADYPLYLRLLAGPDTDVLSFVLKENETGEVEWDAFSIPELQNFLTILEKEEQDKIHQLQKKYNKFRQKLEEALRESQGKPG

The variants in the assay derive from B1. The conditions noted are these: with rasf5_mouse Rassf5, Q5EBH1.
Turning to K1122A;K1124A, the “effect of a mutation on the interaction” value was “disrupting interaction”.
